Literature values in publication PMC9303997.

Experiments:
[1] = target: VPS4B MIT (Homo sapiens) (UniProt O75351)
[2] = target: spastin MIT (Homo sapiens) (UniProt Q9UBP0)
Chain of spastin MIT (Homo sapiens) (Q9UBP0 117-198): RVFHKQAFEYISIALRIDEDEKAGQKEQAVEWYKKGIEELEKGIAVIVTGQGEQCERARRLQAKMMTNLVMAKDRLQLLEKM

Chain of VPS4B MIT (Homo sapiens) (O75351 1-85): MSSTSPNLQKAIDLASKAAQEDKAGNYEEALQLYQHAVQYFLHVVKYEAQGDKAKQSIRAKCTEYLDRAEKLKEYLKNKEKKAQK

- Kd [1]: 12 nM
- Kd [2]: 0.5 nM
Substance: IST1 MIM (from UniProt P53990)
